In patent US20140079753A1, “BMP BINDING PEPTIDES” (Affinergy, LLC, priority 2011, published 2014):
Each block holds one molecule with its values, some of them ahead of it.

How the values were obtained:
BMP2 = target: T1, BMP2 (Homo sapiens, UniProt P12643); assay: BMP2 binding ELISA of synthetic truncation peptides; parameters: key: (−) no binding; (+) binding similar to that of full-length SEQ ID NO: 148 binding; (−/+) binding decreased relative to full-length SEQ ID NO: 148 binding; conditions: relative to full-length SEQ ID NO: 148, ELISA
T1 construct: purchased MEDTRONIC, INC
T1 sequence (P12643 283-396): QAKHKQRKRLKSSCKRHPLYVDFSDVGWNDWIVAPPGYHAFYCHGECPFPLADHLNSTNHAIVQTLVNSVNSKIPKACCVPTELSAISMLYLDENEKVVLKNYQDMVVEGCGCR
Procedure: The relative binding affinity of synthetic BMP binding peptides SEQ ID NOs: 54-56 for BMP2 is shown in FIG. 17 (SEQ ID NO: 54 (Peptide 1); SEQ ID NO: 55 (Peptide 2); SEQ ID NO: 56 (Peptide 3)). Briefly, the results shown in FIG. 17 were generated by immobilizing biotinylated BMP binding peptides on streptavidin coated plates. Serial dilutions of 100 nM, 20 nM, 4 nM, 0.8 nM, 0.16 nM, 0.032 nM 0.006 nM, and 0.001 nM of BMP-2 were incubated with the immobilized BMP binding peptides for 60 minutes, washed 5 times, and bound BMP quantified using ELISA using mouse anti-BMP2 antibody and anti-mouse IgG-alkaline phosphatase conjugate. In addition, the specificity of BMP binding peptide binding SEQ ID NO: 54 to various members of the BMP family was performed in a similar manner by titrating BMP2, BMP3, BMP5, BMP6, GDF5, GDF7, TGFb1, TGFb3, and PDGF-BB (see FIG. 18).
(§1) For the truncation analysis, peptides with one or more N or C-terminal deletions of SEQ ID NO: 148 were synthesized and tested for BMP2 binding using an ELISA assay. The truncation peptides are shown in Table 5 below along with the relative BMP2 binding activity that was measured for each of the peptides according to the procedure described herein above. The relative BMP2 binding activity is depicted as follows: (−) no binding; (+) binding similar to that of full-length SEQ ID NO: 148 binding; (−/+) binding decreased relative to full-length SEQ ID NO: 148 binding.

[1] = tested on: adipose derived stem cells (ASCs); assay: Phage whole cell ELISA for ASC binding; conditions: ranking among SEQ ID NO: 1 mutagenesis variants of Table 2
Procedure: Peptides that bind adipose derived stem cells (ASCs) were identified by phage display biopanning. ASCs were culture amplified from processed liposuction aspirate (<3 passages) (ZEN-BIO, Research Triangle Park, N.C.). After biopanning, individual plaques were picked, grown overnight, and tested for ASC binding activity using whole cell ELISA according to the following procedure. Phage supernatant was incubated for 30 min at room temperature with ASC monolayers established by overnight culture in 96 well plates. Cells were washed four times with Dulbecco's Phosphate Buffered Saline (DPBS) containing 2% FBS, then incubated with 100 μl of horseradish peroxidase conjugated anti-M13 antibody. After 30 minutes at room temperature, cells were washed four times with DPBS containing 2% FBS. M13 antibody binding was detected by the addition of 3,3′,5,5′-Tetramethylbenzidine (TMB). Blue reaction product, indicating positive binding phage, was measured by absorbance at 370 nm in a microplate reader. For the phage displaying ASC binding activity, DNA sequences were analyzed and translated into peptide sequences using Vector NTI DNA Analysis software and are shown below in Table 1.
Mutagenesis of Cell Binding Peptide Sequence SEQ ID NO: 1. A focused phage display library was generated around the cell binding sequence SEQ ID NO: 1 with each nucleotide position varying in identity at a ratio of 70:10:10:10, with the original nucleotide being the dominant form. This is considered a form of “light” mutagenesis, retaining the majority of residue identities with a few amino acid identity changes. The construction of this “degenerate” phage library was performed according to the methods described in Kay et al., 1996. Three rounds of phage display biopanning were performed on ASCs to enrich for positive binding sequences. Phage showing positive binding to ASCs, identified by whole cell ELISA, were re-amplified, retested, and submitted for DNA sequencing to determine the insert amino acid sequences. In FIG. 14 the single letter amino acid sequence of SEQ ID NO: 1 is shown at the top in white letters with black shading. The phage that retained cell binding activity to adipose derived stem cells (ASCs) and fibroblasts are listed below SEQ ID NO: 1 with original amino acids in white with black shading. Amino acid substitutions are shown in black letters with white shading.

dermal fibroblasts = assay: Flow cytometry binding of biotinylated peptides to cells (Neutravidin-PE); conditions: biotinylated peptide 25 μM, 30 min at 4° C, percent positivity vs Neutravidin-PE alone; data not shown
From the text: (§2) Synthetic biotinylated cell binding peptides SEQ ID NOs: 1 and 2 were examined for their ability to specifically bind ASCs compared to a number of other cells types including bone marrow mesenchymal stem cells (MSCs), dermal fibroblasts, red blood cells, monocytes, lymphocytes granulocytes, and platelets. The cell binding peptides were biotinylated as described herein at Example 2. Cultured cells of each type were either purchased (dermal fibroblasts) or isolated from human bone marrow (MSCs) or human blood. Cells were first harvested with 2 mM EDTA in DPBS and resuspended at 10^6/mL in PBS+2% fetal bovine serum (FBS). An aliquot of cells ([…]) was incubated in 50 μL of peptide solution (25 μM in PBS+FBS) for 30 min at 4° C. Cells were then washed twice in PBS+2% FBS with 300×g centrifugation for 5 min between washes. Fluorescently-tagged neutravidin (Neutravidin-PE from INVITROGEN) was then added to the cells to label biotinylated peptide bound to cells. Neutravidin-PE was diluted 1:250 from stock and applied at 50 μL to cells. Cells were then washed in PBS+FBS, and acquired on a BD FACSARRAY. Peptide reactivity was then measured as percent positivity relative to Neutravidin-PE staining without the addition of biotinylated peptide.

human ASCs = assay: as above; conditions: biotinylated peptide 25 μM, 30 min at 4° C, percent positivity vs Neutravidin-PE alone; data not shown
From the text: as §2

rabbit ASCs = assay: Cell capture by biotinylated peptide on streptavidin plate (CELLTITER GLO); type: cell-based; conditions: 45 min room temperature, cellular ATP, FIG. 15
Procedure: (§3) In this experiment, the ability of biotinylated cell binding peptides SEQ ID NOs: 1 and 2 to capture ASCs and fibroblasts from a single cell suspension onto a solid support was examined. The cell binding peptides were biotinylated as described herein at Example 2. The cell binding peptides and control peptides lacking cell binding activity were added to a 96 well plate containing immobilized streptavidin. After 30 min at room temperature, excess peptide was washed away with PBS+0.1% Tween 20, followed by 2 washes with PBS. Dilutions of single cell suspensions of either human ASCs (hASCs), rabbit ASCs, rat fibroblasts, or human dermal fibroblasts (hDermFib) were added to the peptide coated wells and incubated for 45 min at room temperature with gentle shaking. Wells were washed 3 times with DPBS+2% FBS. The number of attached cells was determined by measuring cellular ATP with CELLTITER GLO reagent from PROMEGA.

human ASCs (hASCs) = assay: as above; type: cell-based; conditions: 45 min room temperature, cellular ATP, FIG. 15
Procedure: as §3

rat fibroblasts = assay: as above; type: cell-based; conditions: 45 min room temperature, cellular ATP, FIG. 15
Procedure: as §3

[2] = tested on: human dermal fibroblasts (hDermFib); assay: as above; type: cell-based; conditions: 45 min room temperature, cellular ATP, FIG. 15
Procedure: as §3

BMP2 (MEDTRONIC, INC.) = target: T2, BMP2 (MEDTRONIC, INC.) (UniProt P12643 283-396, biotinylated with NHS-biotin (average of one biotin per protein molecule) in the phage ELISA; not biotinylated in the peptide ELISA); assay: ELISA of synthetic truncation peptides on BMP2; legend in paragraph 124: (-) no binding
T2 construct: also called bone morphogenic protein 2
Procedure: as §1

Molecule: 148 (SIWDDWIGYSR) [compound 148]
BMP2 binding (BMP2): +

Molecule: 186 (WDDWIGYSR) [compound 186]
BMP2 binding (BMP2): −

Molecule: 187 (DDWIGYSR) [compound 187]
BMP2 binding (BMP2): −

Molecule: 190 (SIWDDWIGY) [compound 190]
BMP2 binding (BMP2): +

Molecule: 191 (SIWDDWIG) [compound 191]
BMP2 binding (BMP2): −/+

Molecule: 193 (IWDDWIGYS) [compound 193]
BMP2 binding (BMP2): −

Molecule: 196 (WDDWIG) [compound 196]
BMP2 binding (BMP2): −

Molecule: SAFHSSHDSIGVFIN [SEQ ID NO: 21]
binding affinity for ASCs [1]: highest binding affinity

Molecule: SFWHVTHDSTGVLIR [SEQ ID NO: 4]
binding affinity for ASCs [1]: highest binding affinity

Molecule: SHCVLGHDGRSRCII [SEQ ID NO: 2]
binding to dermal fibroblasts (dermal fibroblasts): significant binding
binding to human ASCs (human ASCs): significant binding
capture of rabbit ASCs (rabbit ASCs): behaved similarly
capture of human ASCs (human ASCs (hASCs)): behaved similarly
capture of rat fibroblasts (rat fibroblasts): without exhibiting significant binding
capture of human fibroblasts [2]: behaved similarly

Molecule: SNWHITHDSIGVLVR [SEQ ID NO: 3]
binding affinity for ASCs [1]: highest binding affinity

Molecule: SNWTSSHDDIGVFLR [SEQ ID NO: 29]
binding affinity for ASCs [1]: highest binding affinity

Molecule: SSFHISHDNIGVFVR [SEQ ID NO: 9]
binding affinity for ASCs [1]: highest binding affinity

Molecule: SSWHISHDDIGVFIR [SEQ ID NO: 6]
binding affinity for ASCs [1]: highest binding affinity

Molecule: SSWHISHDSIGVLIR [SEQ ID NO: 1]
binding to dermal fibroblasts (dermal fibroblasts): significant binding
binding to human ASCs (human ASCs): significant binding
capture of rabbit ASCs (rabbit ASCs): to a lesser extent
capture of human ASCs (human ASCs (hASCs)): capture human ASCs
capture of rat fibroblasts (rat fibroblasts): to a lesser extent

B2: Truncation peptide SEQ ID NO: 194 (peptide)
peptide: IWDDWIGY
modifications: C-terminal GSSGK(biotin) or other spacer group possible; not stated for this assay
binding result (BMP2 (MEDTRONIC, INC.)): no binding

B4: Truncation peptide SEQ ID NO: 186 (peptide)
peptide: WDDWIGYSR
modifications: C-terminal GSSGK(biotin) or other spacer group possible; not stated for this assay
binding result (BMP2 (MEDTRONIC, INC.)): no binding

B7: Truncation peptide SEQ ID NO: 197 (peptide)
peptide: IWDDWI
modifications: C-terminal GSSGK(biotin) or other spacer group possible; not stated for this assay
notes: also called IWDDWI
binding result (BMP2 (MEDTRONIC, INC.)): no binding

B8: Truncation peptide SEQ ID NO: 195 (peptide)
peptide: WDDWIGY
modifications: C-terminal GSSGK(biotin) or other spacer group possible; not stated for this assay
notes: also called WDDWIGY
binding result (BMP2 (MEDTRONIC, INC.)): no binding

Now from value to molecule:

BMP2 binding (BMP2): −
Molecule: 185 (IWDDWIGYSR) [compound 185]

BMP2 binding (BMP2): −
Molecule: 188 (DWIGYSR) [compound 188]

BMP2 binding (BMP2): +
Molecule: 189 (SIWDDWIGYS) [compound 189]

BMP2 binding (BMP2): −/+
Molecule: 192 (SIWDDWI) [compound 192]

BMP2 binding (BMP2): −
Molecule: 194 (IWDDWIGY) [compound 194]

BMP2 binding (BMP2): −
Molecule: 195 (WDDWIGY) [compound 195]

BMP2 binding (BMP2): −
Molecule: 197 (IWDDWI) [compound 197]

binding result (BMP2 (MEDTRONIC, INC.)): no binding
B1: Truncation peptide SEQ ID NO: 188 (peptide)
peptide: DWIGYSR
modifications: C-terminal GSSGK(biotin) or other spacer group possible; not stated for this assay
notes: also called DWIGYSR

binding result (BMP2 (MEDTRONIC, INC.)): no binding
B3: Truncation peptide SEQ ID NO: 187 (peptide)
peptide: DDWIGYSR
modifications: C-terminal GSSGK(biotin) or other spacer group possible; not stated for this assay

binding result (BMP2 (MEDTRONIC, INC.)): no binding
B5: Truncation peptide SEQ ID NO: 196 (peptide)
peptide: WDDWIG
modifications: C-terminal GSSGK(biotin) or other spacer group possible; not stated for this assay
notes: also called WDDWIG

binding result (BMP2 (MEDTRONIC, INC.)): no binding
B6: Truncation peptide SEQ ID NO: 193 (peptide)
peptide: IWDDWIGYS
modifications: C-terminal GSSGK(biotin) or other spacer group possible; not stated for this assay

binding result (BMP2 (MEDTRONIC, INC.)): no binding
B9: Truncation peptide SEQ ID NO: 185 (peptide)
peptide: IWDDWIGYSR
modifications: C-terminal GSSGK(biotin) or other spacer group possible; not stated for this assay
